Laboratory results taken from patent publication US20040209839, “Human peroxisome proliferator activated receptor gamma” (published 2004).

Columns and labels:
hPPARgamma = hPPARgamma (Homo sapiens, UniProt P37231 SEQ:20-494); experiment: EMSA; hPPARgamma alone, no complex; conditions: tags: T3 coupled reticulocyte lysate (Promega), label: 32P end
[1] = molecular target: hPPARgamma/hRXRalpha heterodimer (Homo sapiens, UniProt P37231;P19793 P37231:31-505,P19793:1-462); experiment: EMSA; strong retarded complex; conditions: tags: hPPARgamma in vitro translated, hRXRalpha baculovirus/Sf21 expressed, label: 32P end
hPPARgamma/hRXRalpha heterodimer, sequence (P37231 31-505, chain 1 of 2): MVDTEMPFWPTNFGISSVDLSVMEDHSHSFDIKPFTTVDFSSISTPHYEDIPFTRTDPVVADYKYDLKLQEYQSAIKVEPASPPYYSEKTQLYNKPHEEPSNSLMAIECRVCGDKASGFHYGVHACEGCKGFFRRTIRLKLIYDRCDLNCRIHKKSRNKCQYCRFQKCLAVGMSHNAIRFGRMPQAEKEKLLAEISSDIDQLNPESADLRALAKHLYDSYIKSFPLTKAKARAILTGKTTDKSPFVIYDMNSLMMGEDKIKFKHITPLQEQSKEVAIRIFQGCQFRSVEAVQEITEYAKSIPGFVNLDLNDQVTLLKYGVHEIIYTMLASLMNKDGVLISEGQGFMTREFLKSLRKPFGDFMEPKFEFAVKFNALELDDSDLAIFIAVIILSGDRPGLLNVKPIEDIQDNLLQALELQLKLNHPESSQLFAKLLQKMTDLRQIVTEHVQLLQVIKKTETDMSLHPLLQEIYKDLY
hPPARgamma/hRXRalpha heterodimer, sequence (P19793 whole entry, chain 2 of 2): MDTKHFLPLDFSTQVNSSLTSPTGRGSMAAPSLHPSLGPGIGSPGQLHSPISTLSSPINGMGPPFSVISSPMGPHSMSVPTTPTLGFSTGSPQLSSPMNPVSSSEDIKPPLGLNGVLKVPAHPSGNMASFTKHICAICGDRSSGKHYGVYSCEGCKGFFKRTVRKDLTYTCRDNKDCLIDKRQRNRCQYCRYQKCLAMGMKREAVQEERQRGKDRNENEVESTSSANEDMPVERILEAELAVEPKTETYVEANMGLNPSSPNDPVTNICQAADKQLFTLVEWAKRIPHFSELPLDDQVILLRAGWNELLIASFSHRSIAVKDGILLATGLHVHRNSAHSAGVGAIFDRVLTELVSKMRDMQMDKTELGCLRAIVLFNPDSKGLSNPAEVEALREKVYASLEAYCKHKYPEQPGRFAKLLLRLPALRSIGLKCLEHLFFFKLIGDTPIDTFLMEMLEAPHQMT

hPPARgamma, sequence (P37231 31-505): as the sequence (P37231 31-505, chain 1 of 2) above

Row | Binder | binding result (hPPARgamma; 5' CTAG overhangs) | binding result ([1]; 5' CTAG overhangs) | binding result (hPPARgamma) | binding result [1]
1 | AOX PPRE (dsDNA) DNA 1: CTAGCGATATCATGACCTTTGTCCTAGGCCTC DNA 2: CTAGGAGGCCTAGGACAAAGGTCATGATATCG | no binding | binds |  | 
2 | hydratase (bifunctional enzyme) PPRE (dsDNA) DNA 1: GATCCCTTTGACCTATTGAACTATTACCTACATTA DNA 2: TAATGTAGGTAATAGTTCAATAGGTCAAAGGGATC |  |  | no binding | binds
3 | ApoA1 A site (dsDNA) DNA 1: GATCCCCACTGAACCCTTGACCCCTGCCCTGCAGCA DNA 2: TGCTGCAGGGCAGGGGTCAAGGGTTCAGTGGGGATC |  |  | no binding | binds
